Consider 1 substance from paper PMC6219380.

This assay concerns the target SgcC5 (unlabelled) (Streptomyces globisporus). As to the kind of experiment: SEC. For orientation: In gel filtration, larger molecules generally elute earlier.

As for SgcC5 (unlabelled) (enzyme), the stoichiometry N worked out at 2.

As usually defined, the stoichiometry N is a count of units in the complex or per binding partner.
